In US20210398607A1, “METHODS FOR DESIGNING ANTIBODY SMALL-MOLECULE CONJUGATES” (priority 2020, published 2021):
“Also recorded” adds a separate entry of the source.

B1: mSA (monomeric streptavidin construct), wild type (other)
chain: HHHHHHSQDLASAEAGITGTWYNQSGSTFTVTAGADGNLTGQYENRAQGTGCQNSPYTLTGRYNGTKLEWRVEWNNSTENCHSRTEWRGQYQGGAEARINTQWNLTYEGGSGPATEQGQDTFTKVKPSAASGSDYKDDDDK
notes: also called mSAWT

Columns and labels:
[1] = target: T1, N-terminal biotinylated Smt3 SUMO protein (UniProt Q12306 2-98 = SUMO); experiment: SPR, Biotin_SUMO injected at 2.5, 10, 20, 50, 80 nM over immobilized mSAWT; fit curve; replicate 3
[2] = target: T1, N-terminal biotinylated Smt3 SUMO …; experiment: SPR, Biotin_SUMO injected at 2.5, 10, 20, 50, 80 nM over immobilized mSAWT; fit curve; one of three replicates
[3] = target: T1, N-terminal biotinylated Smt3 SUMO …; experiment: SPR, Biotin_SUMO injected at 2.5, 10, 20, 50, 80 nM over immobilized mSAWT; fit curve; replicate 2
[4] = target: B1; experiment: SPR, conjugate injected at 0.5, 1, 2.5, 5, 10 nM over immobilized mSAWT; fit curve
[5] = target: B1; experiment: SPR
[6] = target: B1; experiment: SPR, single-cycle injections of 1, 2.5, 5, 10 and 20 nM conjugate over immobilized mSAWT; fit curve
[7] = target: B1; experiment: as above
[8] = target: B1; experiment: SPR, single-cycle injections of 2.5, 5, 10, 20 and 50 nM conjugate; target mSAWT by the text, not printed on the sheet; fit curve
[9] = target: B1; experiment: as above
[10] = for aggregation / monomer stability on SEC: SEC traces
Procedure: Two additional rounds of CDR residue mutability analysis were performed followed by in-parallel combinatorial designs on v149 until no further CDR mutations were predicted to be energetically favorable. Mutations accumulated in previous rounds of design were kept intact in subsequent rounds.

[11] = target: mSA (monomeric streptavidin, mSAWT) (Streptomyces avidinii; Rhizobium etli, UniProt P22629+Q8KKW2); experiment: SPR binding against mSAWT; details: for koff / dissociation rate, in words: mSAWT
Text: Smt3 SUMO protein has an unstructured N-terminus and it was hypothesized this would minimize the interaction between the protein components.

B1
Kd [1]: 10.4 nM
koff [1]: 0.00366 s⁻¹
kon [1]: 350000 M⁻¹ s⁻¹
Kd [2]: 7.85 nM
koff [2]: 0.00334 s⁻¹
kon [2]: 430000 M⁻¹ s⁻¹
Kd [3]: 10.5 nM
koff [3]: 0.00372 s⁻¹
kon [3]: 360000 M⁻¹ s⁻¹

B2: 4NBX.B-biotin103 v186 (VHH)
VHH: QVQLQESGGGLAQAGGSLRLSCAASGRTFSRSPMAWFRQPPGKEREFVAAGSSTGTTTYYADSVKGRFTISRDNAKNTVYLQMNSLKPEDTAVYYCAAAPLGCARKFAESAYWGQGTQVTVSS
Kd [4]: 0.33 nM
koff [4]: 0.00106 s⁻¹
kon [4]: 3.23e+06 M⁻¹ s⁻¹

B3: 4NBX.B-biotin103 v186_Fr +1 (VHH)
VHH: QVQLQESGGGLVQAGGSLRLSCAASGRTFSRSPMAWYRQPPGKEREFVAAGSSTGTTTYYADSVKGRFTISRDNAKNTVYLQMNSLKPEDTAVYYCAAAPLGACRKFAESAYWGQGTQVTVSS
notes: also called +1 variant of 4NBX.B-biotin103 v186_Fr
fold weaker binding than the -1 variant [5]: ~2 fold
Kd [6]: 0.64 nM
koff [6]: 0.00138 s⁻¹
kon [6]: 2.14e+06 M⁻¹ s⁻¹

B4: 4NBX.B-biotin103 v186_Fr -1 (VHH)
VHH: QVQLQESGGGLVQAGGSLRLSCAASGRTFSRSPMAWYRQPPGKEREFVAAGSSTGTTTYYADSVKGRFTISRDNAKNTVYLQMNSLKPEDTAVYYCAAAPLCAARKFAESAYWGQGTQVTVSS
notes: also called -1 variant of 4NBX.B-biotin103 v186_Fr
Kd [7]: 0.32 nM
koff [7]: 0.000986 s⁻¹
kon [7]: 3.13e+06 M⁻¹ s⁻¹

B5: 2X89.A-CCAA-biotin57 v42 (VHH)
VHH: QVQLQESGGGLVQAGGSLRLSCAASGYTDSQYAMGWYRQAPGKEREWVATISAGRDCTYYADSVKGRFTFSQDNAKNTVYLQMDSLKPEDTAVYYCATDIPLQATLITAKGGKGFQYWGQGTQVTVSS
Kd [8]: 3.32 nM
koff [8]: 0.00178 s⁻¹
kon [8]: 540000 M⁻¹ s⁻¹

B6: 2X89.A-CCAA-biotin57 v20 (VHH)
VHH: QVQLQESGGGLVQAGGSLRLSCAASGYTSSQYAMGWYRQAPGKEREWVATISAGRDCTYYADSVKGRFTFSQDNAKNTVYLQMDSLKPEDTAVYYCATDSPLQATLITAKGGKGFQYWGQGTQVTVSS
Kd [9]: 3.28 nM
koff [9]: 0.00183 s⁻¹
kon [9]: 560000 M⁻¹ s⁻¹

B7: 2X89.A-CCAA-biotin57 v37 (VHH)
VHH: QVQLQESGGGLVQAGGSLRLSCAASGYTDSRYAMGWYRQAPGKEREWVARISAGRDCTYYADSVKGRFTFSQDNAKNTVYLQMDSLKPEDTAVYYCATDIPLQATLITAKGGDGFRYWGQGTQVTVSS
binding result [5]: binds

B8: 2X89.A-CCAA-biotin57: nanobody 2X89.A, intra-CDR disulfide replaced by two alanines, biotin conjugated to site 57, SEQ ID NO:10 (conjugate)
VHH: QVQLQESGGGSVQAGGSLRLSCAASGYTDSRYAMAWFRQAPGKEREWVARINSGRDCTYYADSVKGRFTFSQDNAKNTVYLQMDSLEPEDTATYYCATDIPLRARDIVAKGGDGFRYWGQGTQVTVSSHHHHHH
aggregation / monomer stability on SEC [10]: aggregated obviously
koff / dissociation rate, in words [11]: especially slow dissociation rate; also recorded: slightly better than the best designed 4NBX.B variant v186_Fr

B9: Wildtype 4NBX.B: nanobody scaffold, chain B of PDB structure 4NBX, SEQ ID NO:1, unconjugated (protein)
VHH: QVQLQESGGGLAQAGGSLRLSCAASGRTFSMDPMAWFRQPPGKEREFVAAGSSTGRTTYYADSVKGRFTISRDNAKNTVYLQMNSLKPEDTAVYYCAAAPYGANWYRDEYAYWGQGTQVTVSSHHHHHH
modifications: 4NBX.B-WT
binding signal to mSA ([11]; concentrations up to 100 nM): did not show binding signal

B10: 4NBX.B-biotin103 v119: 4NBX.B-biotin103 with M31H/D32A/N104S/W105H, SEQ ID NO:3 (conjugate)
VHH: QVQLQESGGGLAQAGGSLRLSCAASGRTFSHAPMAWFRQPPGKEREFVAAGSSTGRTTYYADSVKGRFTISRDNAKNTVYLQMNSLKPEDTAVYYCAAAPYGCSHYRDEYAYWGQGTQVTVSSHHHHHH
aggregation / monomer stability on SEC [10]: single peaks
koff / dissociation rate, in words [11]: only minimally different

B11: 4NBX.B-biotin103 v149: 4NBX.B-biotin103 with M31R/D32S/N104A/W105R, SEQ ID NO:4; the WT line of Table 3 (conjugate)
VHH: QVQLQESGGGLAQAGGSLRLSCAASGRTFSRSPMAWFRQPPGKEREFVAAGSSTGRTTYYADSVKGRFTISRDNAKNTVYLQMNSLKPEDTAVYYCAAAPYGCARYRDEYAYWGQGTQVTVSSHHHHHH
aggregation / monomer stability on SEC [10]: very prone to aggregation

B12: 4NBX.B-biotin103: nanobody 4NBX.B A103C (SEQ ID NO:2) conjugated with biotin C2 maleimide at site 103 (conjugate)
VHH: QVQLQESGGGLAQAGGSLRLSCAASGRTFSMDPMAWFRQPPGKEREFVAAGSSTGRTTYYADSVKGRFTISRDNAKNTVYLQMNSLKPEDTAVYYCAAAPYGCNWYRDEYAYWGQGTQVTVSSHHHHHH
aggregation / monomer stability on SEC [10]: single peaks

B13: 4NBX.B-biotin103 v186: v149 plus Y101L/R107F/R56T/Y106K/D108A/Y110S, SEQ ID NO:5; the WT line of Table 2 (conjugate)
VHH: QVQLQESGGGLAQAGGSLRLSCAASGRTFSRSPMAWFRQPPGKEREFVAAGSSTGTTTYYADSVKGRFTISRDNAKNTVYLQMNSLKPEDTAVYYCAAAPLGCARKFAESAYWGQGTQVTVSSHHHHHH
aggregation / monomer stability on SEC [10]: even worse aggregates formation than v149
KD / measured affinity against mSAWT, comparison in words [11]: very similar KD as v149

B14: 4NBX.B-biotin103 v186_Fr: v186 plus framework mutations A12V/F37Y, SEQ ID NO:6 (conjugate)
VHH: QVQLQESGGGLVQAGGSLRLSCAASGRTFSRSPMAWYRQPPGKEREFVAAGSSTGTTTYYADSVKGRFTISRDNAKNTVYLQMNSLKPEDTAVYYCAAAPLGCARKFAESAYWGQGTQVTVSSHHHHHH
aggregation / monomer stability on SEC [10]: significantly reduced aggregation
re-aggregation of collected fractions excluding the aggregates peak ([10]; rerun on SEC): did not re-aggregate

B15: 4NBX.B-biotin103 v186_Fr + 1: v186_Fr with biotin103 moved to +1 position on CDR3, SEQ ID NO:7 (conjugate)
VHH: QVQLQESGGGLVQAGGSLRLSCAASGRTFSRSPMAWYRQPPGKEREFVAAGSSTGTTTYYADSVKGRFTISRDNAKNTVYLQMNSLKPEDTAVYYCAAAPLGACRKFAESAYWGQGTQVTVSSHHHHHH
modifications: biotin conjugated; 4NBX.B-biotin103 v186_Fr +1
KD / measured affinity against mSAWT, comparison in words [11]: minimally different from the wildtype v186_Fr

B16: 4NBX.B-biotin103 v186_Fr − 1: v186_Fr with biotin103 moved to −1 position on CDR3, SEQ ID NO:8 (conjugate)
VHH: QVQLQESGGGLVQAGGSLRLSCAASGRTFSRSPMAWYRQPPGKEREFVAAGSSTGTTTYYADSVKGRFTISRDNAKNTVYLQMNSLKPEDTAVYYCAAAPLCAARKFAESAYWGQGTQVTVSSHHHHHH
modifications: biotin conjugated; 4NBX.B-biotin103 v186_Fr -1
KD / measured affinity against mSAWT, comparison in words [11]: minimally different from the wildtype v186_Fr

B17: 2X89.A-CCAA-biotin57 v5: final variant of 2X89.A-CCAA-biotin57 that accumulated 18 mutations, SEQ ID NO:14 (conjugate)
VHH: QVQLQESGGGLVQAGGSLRLSCAASGYTSSQYAMGWYRQAPGKEREWVATISAGADCTYYADSVKGRFTFSQDNAKNTVYLQMDSLKPEDTAVYYCATDSPLQATLITAKGGKGFQYWGQGTQVTVSSHHHHHH
aggregation / monomer stability on SEC [10]: eventually better than the 2X89.A-CCAA-biotin57 parent conjugate
koff / dissociation rate, in words [11]: relatively preserved
